Numbered stars: 1 amine (or outer) side, 2 acyl side, 3 side chain; on linkers, the order of the positions; unused ones are H or OH. Bridge positions count the residues as written; N and C are the ends. Side chains are listed from the residue outwards. Ends that are not written are not given here. * marks the point of attachment. C20 diacid = O=C(O)CCCCCCCCCCCCCCCCCCC(=O)*; γGlu = O=C(O)[C@H](CCC(=O)[*:2])N[*:1]
T1: human calcitonin receptor (human, UniProt P30988 25-474)
T1 construct: whole, on cells; also called hCTR; hCT
T1 sequence (looked up): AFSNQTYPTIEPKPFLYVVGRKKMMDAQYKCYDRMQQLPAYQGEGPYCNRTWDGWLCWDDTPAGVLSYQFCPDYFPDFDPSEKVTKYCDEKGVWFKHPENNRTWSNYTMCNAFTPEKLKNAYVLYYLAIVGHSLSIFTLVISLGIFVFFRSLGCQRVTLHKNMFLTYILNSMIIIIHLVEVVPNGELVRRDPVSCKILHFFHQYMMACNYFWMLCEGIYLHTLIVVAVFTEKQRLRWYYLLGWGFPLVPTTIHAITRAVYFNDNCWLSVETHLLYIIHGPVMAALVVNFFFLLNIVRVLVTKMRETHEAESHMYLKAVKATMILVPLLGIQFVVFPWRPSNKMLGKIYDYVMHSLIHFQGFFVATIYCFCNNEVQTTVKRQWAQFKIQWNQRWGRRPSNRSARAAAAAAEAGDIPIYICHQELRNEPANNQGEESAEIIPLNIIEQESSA


What was measured:
[1] = target: T1, human calcitonin receptor; experiment: SPA radioligand competition (125I-calcitonin), membranes of BHK cells with human calcitonin receptor
Procedure, shortened: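 BHK hCTR membranes 35 ng/μL + SPA beads 0.05 mg/well; buffer 50 mM Hepes pH 7.4, 1 mM CaCl2, 5 mM MgCl₂, 0.1% OA, 0.02% Tween20. 120 min, 25° C., shaking. Scintillation count; IC50 by one-site binding competition.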

[2] = target: T1, human calcitonin receptor; experiment: ratio of IC50 at human calcitonin receptor to IC50 at human amylin receptor (SPA competition assays)
Procedure, shortened: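 Scintillation proximity competition binding on cell membranes at 35 ng/μL with SPA beads, in 50 mM Hepes pH 7.4, 1 mM CaCl2, 5 mM MgCl₂, 0.1% OA, 0.02% Tween20. Incubated 120 min at 25° C with shaking. IC₅₀ from one-site competition fit.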

IC50 [1]	Ratio hCT/hAmylin binding [2]	Binder
32.5 nM	28	K([γGlu-γGlu-C20 diacid])CNTATCATQRLAEFLRHSSPNFGAIPSSTNVGSRTY-NH2 (disulfide 2-7; N-terminus assumed; SMILES CC[C@H](C)[C@H](NC(=O)[C@H](C)NC(=O)CNC(=O)[C@H](Cc1ccccc1)NC(=O)[C@H](CC(N)=O)NC(=O)[C@@H]1CCCN1C(=O)[C@H](CO)NC(=O)[C@H](CO)NC(=O)[C@H](Cc1c[nH]cn1)NC(=O)[C@H](CCCNC(=N)N)NC(=O)[C@H](CC(C)C)NC(=O)[C@H](Cc1ccccc1)NC(=O)[C@H](CCC(=O)O)NC(=O)[C@H](C)NC(=O)[C@H](CC(C)C)NC(=O)[C@H](CCCNC(=N)N)NC(=O)[C@H](CCC(N)=O)NC(=O)[C@@H](NC(=O)[C@H](C)NC(=O)[C@@H]1CSSC[C@H](NC(=O)[C@@H](N)CCCCNC(=O)CC[C@H](NC(=O)CC[C@H](NC(=O)CCCCCCCCCCCCCCCCCCC(=O)O)C(=O)O)C(=O)O)C(=O)N[C@@H](CC(N)=O)C(=O)N[C@@H]([C@@H](C)O)C(=O)N[C@@H](C)C(=O)N[C@@H]([C@@H](C)O)C(=O)N1)[C@@H](C)O)C(=O)N1CCC[C@H]1C(=O)N[C@@H](CO)C(=O)N[C@@H](CO)C(=O)N[C@H](C(=O)N[C@@H](CC(N)=O)C(=O)N[C@H](C(=O)NCC(=O)N[C@@H](CO)C(=O)N[C@@H](CCCNC(=N)N)C(=O)N[C@H](C(=O)N[C@@H](Cc1ccc(O)cc1)C(N)=O)[C@@H](C)O)C(C)C)[C@@H](C)O, also called compound 89)
17.5 nM	53.6	K([γGlu-γGlu-C20 diacid])CNTATCATQRLAEFLRHSSPNFGAIPSSTNVGPRTY-NH2 (disulfide 2-7; N-terminus assumed; SMILES CC[C@H](C)[C@H](NC(=O)[C@H](C)NC(=O)CNC(=O)[C@H](Cc1ccccc1)NC(=O)[C@H](CC(N)=O)NC(=O)[C@@H]1CCCN1C(=O)[C@H](CO)NC(=O)[C@H](CO)NC(=O)[C@H](Cc1c[nH]cn1)NC(=O)[C@H](CCCNC(=N)N)NC(=O)[C@H](CC(C)C)NC(=O)[C@H](Cc1ccccc1)NC(=O)[C@H](CCC(=O)O)NC(=O)[C@H](C)NC(=O)[C@H](CC(C)C)NC(=O)[C@H](CCCNC(=N)N)NC(=O)[C@H](CCC(N)=O)NC(=O)[C@@H](NC(=O)[C@H](C)NC(=O)[C@@H]1CSSC[C@H](NC(=O)[C@@H](N)CCCCNC(=O)CC[C@H](NC(=O)CC[C@H](NC(=O)CCCCCCCCCCCCCCCCCCC(=O)O)C(=O)O)C(=O)O)C(=O)N[C@@H](CC(N)=O)C(=O)N[C@@H]([C@@H](C)O)C(=O)N[C@@H](C)C(=O)N[C@@H]([C@@H](C)O)C(=O)N1)[C@@H](C)O)C(=O)N1CCC[C@H]1C(=O)N[C@@H](CO)C(=O)N[C@@H](CO)C(=O)N[C@H](C(=O)N[C@@H](CC(N)=O)C(=O)N[C@H](C(=O)NCC(=O)N1CCC[C@H]1C(=O)N[C@@H](CCCNC(=N)N)C(=O)N[C@H](C(=O)N[C@@H](Cc1ccc(O)cc1)C(N)=O)[C@@H](C)O)C(C)C)[C@@H](C)O, also called compound 110)
22.5 nM	35.6	K([γGlu-γGlu-C20 diacid])CNTATCATQRLAEFLRHSSPNFGAIPSSTNVGHNTY-NH2 (disulfide 2-7; N-terminus assumed; SMILES CC[C@H](C)[C@H](NC(=O)[C@H](C)NC(=O)CNC(=O)[C@H](Cc1ccccc1)NC(=O)[C@H](CC(N)=O)NC(=O)[C@@H]1CCCN1C(=O)[C@H](CO)NC(=O)[C@H](CO)NC(=O)[C@H](Cc1c[nH]cn1)NC(=O)[C@H](CCCNC(=N)N)NC(=O)[C@H](CC(C)C)NC(=O)[C@H](Cc1ccccc1)NC(=O)[C@H](CCC(=O)O)NC(=O)[C@H](C)NC(=O)[C@H](CC(C)C)NC(=O)[C@H](CCCNC(=N)N)NC(=O)[C@H](CCC(N)=O)NC(=O)[C@@H](NC(=O)[C@H](C)NC(=O)[C@@H]1CSSC[C@H](NC(=O)[C@@H](N)CCCCNC(=O)CC[C@H](NC(=O)CC[C@H](NC(=O)CCCCCCCCCCCCCCCCCCC(=O)O)C(=O)O)C(=O)O)C(=O)N[C@@H](CC(N)=O)C(=O)N[C@@H]([C@@H](C)O)C(=O)N[C@@H](C)C(=O)N[C@@H]([C@@H](C)O)C(=O)N1)[C@@H](C)O)C(=O)N1CCC[C@H]1C(=O)N[C@@H](CO)C(=O)N[C@@H](CO)C(=O)N[C@H](C(=O)N[C@@H](CC(N)=O)C(=O)N[C@H](C(=O)NCC(=O)N[C@@H](Cc1c[nH]cn1)C(=O)N[C@@H](CC(N)=O)C(=O)N[C@H](C(=O)N[C@@H](Cc1ccc(O)cc1)C(N)=O)[C@@H](C)O)C(C)C)[C@@H](C)O, also called compound 87)
15.2 nM	29.1	K([γGlu-γGlu-C20 diacid])CNTATCATQRLAEFLRHSSPNFGAIPSSTNVGHETY-NH2 (disulfide 2-7; N-terminus assumed; SMILES CC[C@H](C)[C@H](NC(=O)[C@H](C)NC(=O)CNC(=O)[C@H](Cc1ccccc1)NC(=O)[C@H](CC(N)=O)NC(=O)[C@@H]1CCCN1C(=O)[C@H](CO)NC(=O)[C@H](CO)NC(=O)[C@H](Cc1c[nH]cn1)NC(=O)[C@H](CCCNC(=N)N)NC(=O)[C@H](CC(C)C)NC(=O)[C@H](Cc1ccccc1)NC(=O)[C@H](CCC(=O)O)NC(=O)[C@H](C)NC(=O)[C@H](CC(C)C)NC(=O)[C@H](CCCNC(=N)N)NC(=O)[C@H](CCC(N)=O)NC(=O)[C@@H](NC(=O)[C@H](C)NC(=O)[C@@H]1CSSC[C@H](NC(=O)[C@@H](N)CCCCNC(=O)CC[C@H](NC(=O)CC[C@H](NC(=O)CCCCCCCCCCCCCCCCCCC(=O)O)C(=O)O)C(=O)O)C(=O)N[C@@H](CC(N)=O)C(=O)N[C@@H]([C@@H](C)O)C(=O)N[C@@H](C)C(=O)N[C@@H]([C@@H](C)O)C(=O)N1)[C@@H](C)O)C(=O)N1CCC[C@H]1C(=O)N[C@@H](CO)C(=O)N[C@@H](CO)C(=O)N[C@H](C(=O)N[C@@H](CC(N)=O)C(=O)N[C@H](C(=O)NCC(=O)N[C@@H](Cc1c[nH]cn1)C(=O)N[C@@H](CCC(=O)O)C(=O)N[C@H](C(=O)N[C@@H](Cc1ccc(O)cc1)C(N)=O)[C@@H](C)O)C(C)C)[C@@H](C)O)
2.13 nM	17.6	K([γGlu-γGlu-C20 diacid])CNTATCATQRLAEFLRHSSPNFGAIPSSTNVGPETY-NH2 (disulfide 2-7; N-terminus assumed; SMILES CC[C@H](C)[C@H](NC(=O)[C@H](C)NC(=O)CNC(=O)[C@H](Cc1ccccc1)NC(=O)[C@H](CC(N)=O)NC(=O)[C@@H]1CCCN1C(=O)[C@H](CO)NC(=O)[C@H](CO)NC(=O)[C@H](Cc1c[nH]cn1)NC(=O)[C@H](CCCNC(=N)N)NC(=O)[C@H](CC(C)C)NC(=O)[C@H](Cc1ccccc1)NC(=O)[C@H](CCC(=O)O)NC(=O)[C@H](C)NC(=O)[C@H](CC(C)C)NC(=O)[C@H](CCCNC(=N)N)NC(=O)[C@H](CCC(N)=O)NC(=O)[C@@H](NC(=O)[C@H](C)NC(=O)[C@@H]1CSSC[C@H](NC(=O)[C@@H](N)CCCCNC(=O)CC[C@H](NC(=O)CC[C@H](NC(=O)CCCCCCCCCCCCCCCCCCC(=O)O)C(=O)O)C(=O)O)C(=O)N[C@@H](CC(N)=O)C(=O)N[C@@H]([C@@H](C)O)C(=O)N[C@@H](C)C(=O)N[C@@H]([C@@H](C)O)C(=O)N1)[C@@H](C)O)C(=O)N1CCC[C@H]1C(=O)N[C@@H](CO)C(=O)N[C@@H](CO)C(=O)N[C@H](C(=O)N[C@@H](CC(N)=O)C(=O)N[C@H](C(=O)NCC(=O)N1CCC[C@H]1C(=O)N[C@@H](CCC(=O)O)C(=O)N[C@H](C(=O)N[C@@H](Cc1ccc(O)cc1)C(N)=O)[C@@H](C)O)C(C)C)[C@@H](C)O)

From patent US20140087995A1 (published 2014)
